Results published in patent publication US20040229241A1, “Cloned mammalian polyamine oxidase” (priority 2001, published 2004).

Assays:
[1] = substrate: NCCCNCCCCNCCCN; assay: cells, lysate or membranes named; conditions: other: named compound as substrate, Lineweaver-Burk; 37.0 °C
[2] = substrate: NCCCNCCCCNCCCN; assay: PAO activity of in vitro TnT (wheat germ) produced PAOh1, fluorescent H2O2 assay; assay type: biochemical, human; conditions: other: Lineweaver/Burke transformation; pH 9.0; 37.0 °C
Protocol: In Vitro Transcription and Translation. In vitro transcription and translation reactions were performed with the TnT-coupled wheat germ extract system. Parallel reactions were prepared by adding an unlabeled amino acid mixture to one reaction and a [^35S]methionine containing amino acid mixture to the other, according to the supplied protocol. Vector pcDNA3.1 and pPAOh1 were linearized by SalI restriction and served as the templates. The labeled translation reactions products were separated by 10% SDS-PAGE, and radioactivity on the labeled PAO band was determined by Phosphor image analysis using Image Quant software (Molecular Dynamics, Sunnyvale, Calif.).
Determination of PAO Enzyme Activity. The cultured H157 cells with or without treatment of 10 μM N^1, N″-bis(ethyl)norspermine (BENSpm) were homogenized with a Dounce tissue homogenizer in ice-cold 0.083 M sodium borate buffer (pH 9.0). […] The enzyme activity was stopped by the addition of 2.0 ml of 0.1 M NaOH solution. The fluorescence intensity was measured with excitation at 323 nm and emission at 426 nm. […] Protein content of the cellular homogenate was determined using the Bio-Rad protein assay kit (Bio-Rad). […] For determination of PAO activity in the product of the unlabeled TnT reaction, 10 μl of TnT reaction were used in the place of the homogenate. […]

| Protein | Km [1] | Vmax [1] | Km [2] |
| --- | --- | --- | --- |
| purified recombinant human PAOh1/SMO (Homo sapiens) (protein) MQSCESSGDSADDPLSRGLRRRGQPRVVVIGAGLAGLAAAKALLEQGFTDVTVLEASSHIGGRVQSVKLGHATFELGATWIHGSHGNPIYHLAEANGLLEETTDGERSVGRISLYSKNGVACYLTNHGRRIPKDVVEEFSDLYNEVYNLTQEFFRHDKPVNAESQNSVGVFTREEVRNRIRNDPDDPEATKRLKLAMIQQYLKVESCESSSHSMDEVSLSAFGEWTEIPGAHHIIPSGFMRVVELLAEGIPAHVIQLGKPVRCIHWDQASARPRGPEIEPRGEGDHNHDTGEGGQGGEEPRGGRWDEDEQWSVVVECEDCELIPADHVIVTVSLGVLKRQYTSFFRPGLPTEKVAAIHRLGIGTTDKIFLEFEEPFWGPECNSLQFVWEDEAESHTLTYPPELWYRKICGFDVLYPPERYGHVLSGWICGEEALVMEKCDDEAVAEICTEMLRQFTGNPNIPKPRRILRSAWGSNPYFRGSYSYTQVGSSGADVEKLAKPLPYTESSKTAPMQVLFSGEATHRKYYSTTHGALLSGQREAARLIEMYRDLFQQGT | 1.63 µM | 7.72 μmol/mg protein/min | – |
| human PAOh1 (Homo sapiens) (protein, made in house; host or cells: TnT-coupled wheat germ extract (Promega), template pPAOh1 (pcDNA3.1)) MQSCESSGDSADDPLSRGLRRRGQPRVVVIGAGLAGLAAAKALLEQGFTDVTVLEASSHIGGRVQSVKLGHATFELGATWIHGSHGNPIYHLAEANGLLEETTDGERSVGRISLYSKNGVACYLTNHGRRIPKDVVEEFSDLYNEVYNLTQEFFRHDKPVNAESQNSVGVFTREEVRNRIRNDPDDPEATKRLKLAMIQQYLKVESCESSSHSMDEVSLSAFGEWTEIPGAHHIIPSGFMRVVELLAEGIPAHVIQLGKPVRCIHWDQASARPRGPEIEPRGEGDHNHDTGEGGQGGEEPRGGRWDEDEQWSVVVECEDCELIPADHVIVTVSLGVLKRQYTSFFRPGLPTEKVAAIHRLGIGTTDKIFLEFEEPFWGPECNSLQFVWEDEAESHTLTYPPELWYRKICGFDVLYPPERYGHVLSGWICGEEALVMEKCDDEAVAEICTEMLRQFTGNPNIPKPRRILRSAWGSNPYFRGSYSYTQVGSSGADVEKLAKPLPYTESSKTAPMQVLFSGEATHRKYYSTTHGALLSGQREAARLIEMYRDLFQQGT | – | – | 18 µM |
